From paper PMC8895158 (2022)

Biological target: His-Src SH3 (UniProt P12931 84-145)
Assay: SPR

- Kd: 9.97 µM
Binder: RKLPPRPSK [RLP1 peptide]
